Ends that are not written are not given here.
Experiments:
[1] = tested on: intestinal mucosa; assay: Example 2: intestinal mucosal weight in rats after subcutaneous glicentin or control peptides; assay type: in vivo; details: 1 nmol per rat s.c.; for Intestinal mucosal weight: third of four equal parts of small intestine from the duodenum
Procedure: A solution of glicentin dissolved in a small amount of distilled water for injection was diluted with a 2% solution of bovine albumin prepared with a physiological saline solution for injection to a concentration of 400 μg/ml (50 nmol/ml). The solution was frozen and stored until used. On use it was 1:10 diluted with the physiological saline solution and subcutaneously given to rats at a dose of 0.2 ml, i.e., 1 nmol of glicentin per rat.
They were prepared and administered in the same way as glicentin at a dose of 1 nmol.
The small intestine was divided equally into four parts and the third part from the duodenum was measured for the weight of the mucosa.

[2] = tested on: male BALB/c mice; assay: Intraperitoneal administration of human glicentin to mice, appearance observed; assay type: in vivo, mouse; details: 10 mg/kg intraperitoneally, male BALB/c mice (6 weeks age)
[3] = tested on: intestinal mucosae; assay: Example 1: nutritional (trophic) effect of glicentin on the intestinal mucosae of rats fed an elemental nutrition; assay type: in vivo, rat; details: 10 μg s.c. every 12 hours for 7 days
Procedure: An experiment was performed in male SD rats weighing 140-160 g which had been fed on standard food under light-dark condition of a cycle of 12 hours. The food which was replaced by an elemental nutrition (Elental®, Morishita-Roussel Japan) was taken ad lib., and remained unchanged until the experiment was finished. After feeding on the component nutrition for 3 days, administration of glicentin prepared as described below was started.
Gelatin was dissolved in warm water to a weight ratio of 16%, and the solution autoclaved and cooled to room temperature. To 40 ml of the gelatin solution was added a solution of 1 mg of glicentin in 10 ml of distilled water with stirring at room temperature. The mixture was divided into test tubes, freeze dried and stored for use.
The gelatin solution was subcutaneously given at a dose of 10 μg per glicentin every 12 hours for 7 days to examine a nutritional effect of glicentin on the intestinal mucosae. A similar gelatin solution containing no glicentin was given for the same period of time as a control for comparison. Twelve hours after completion of the final administration, the rats were sacrificed and subjected to removal of the small intestine in the region from the Treitz's ligamentum to the cecum. The removed small intestine was cut at the central site to separate it into the jejunum and the ileum. The lumen of each of the intestinal tracts was gently washed with an aqueous physiological saline solution. The intestinal tracts were longitudinally incised, respectively, and tissues were removed of a portion of the jejunum in proximity to the duodenum, a portion of the ileum in proximity to the cecum and a portion around the boundary between the jejunum and the ileum and fixed in a 3.7% formalin solution as the proximal, distal and middle sites of the small intestine, respectively. Mucosae were collected by ablation with a spatula from the remainder of the intestinal tracts and weighed, respectively.
The tissues fixed in the formalin solution were embedded in paraffin to form a preparation which was stained with hematoxylin-eosin and measured for height of the villi using an optical microscope.

[4] = tested on: digestive tracts (gastric antrum, duodenum, jejunum); assay: Example 3: motility of the digestive tracts after meal in dogs (strain gauge transducers); assay type: in vivo, dog; details: 400 pmol/kg i.v. over 1 hour
Procedure: An experiment was performed as described below in order to examine the action of glicentin on a motility of the digestive tracts after meal.
Six hybrid dogs weighing 16-18 kg were sutured with strain gauge transducers (manufactured by Star Medical, F121S) at a site of the gastric antrum 4 cm from the pyloric ring, a site of the duodenum for the main incurrent pancreatic duct and a site of the jejunum 10 cm from the Treitz's ligamentum, respectively, to measure the contractile force intensity of the circular muscle. Recovery period for the suture was 2 weeks.
Three of the 6 dogs were intravenously given over 1 hour 15 ml of a physiological saline solution in which 400 pmol of glicentin had been dissolved per kg of bodyweight. The remaining three received an aqueous physiological solution containing no glicentin in the same way as above as a control for comparison. The dogs were fed on 15 g of a solid diet (SD®, manufactured by Oriental Yeast K. K.) and 15 g of Vitaone® (manufactured by Nihon Pet Food K. K. and Kyodo Shiryo K. K. ) per kg of bodyweight simultaneously with the intravenous administration.
Then, the motor activity of the digestive tracts and length of the post-feed period were measured. Intensity of the contraction in the post-feed period was integrated for the two-hour measurements and evaluated in comparison with the mean level of the signal peak in phase 3 motor activity of the intestinal tracts in hunger and taken as a motor index.

[5] = post-feed contraction integrated over two hours relative to phase 3 peak

**Q.** For “Glucagon-like peptide-1: peptide hormone which occurs in a region of preproglucagon containing no glicentin (HAEGTFTSDVSSYLEGQAAKEFIAWLVKGR; ends and bridges not checked; UniProt P01275 98-127, looked up) [reference compound]”, which Intestinal mucosal weight [1] is on record?
**A.** 0.498 ± 0.042 g

B1: Glicentin: Enteroglucagon peptide comprising 69 amino acid residues (SEQ ID NO:1), prepared by genetic engineering procedure (protein)
chain: RSLQDTEEKSRSFSASQADPLSDPDQMNEDKRHSQGTFTSDYSKYLDSRRAQDFVQWLMNTKRNRNNIA
**Q.** Which “effect on weight of intestinal mucosa (in words)” value ([1]; versus control) does the source give for B1 here?
**A.** significantly increases

**Q.** And the Intestinal mucosal weight [1]?
**A.** 0.614 ± 0.025 g

**Q.** What about the change in appearance [2] of the same molecule?
**A.** no change in appearance

**Q.** What about the “Ileal mucosal weight per 100 g bodyweight” value [3] of the same molecule?
**A.** 0.57 ± 0.04 g/100 g bodyweight

**Q.** And the “Jejunal mucosal weight per 100 g bodyweight” value [3]?
**A.** 0.75 ± 0.08 g/100 g bodyweight

**Q.** What about the “Length of small intestine per 100 g bodyweight” value [3] of the same molecule?
**A.** 66.4 ± 1.7 cm/100 g bodyweight

**Q.** What about the “Whole small intestinal mucosal weight per 100 g bodyweight” value [3] of the same molecule?
**A.** 1.32 ± 0.03 g/100 g bodyweight

**Q.** And the “Length of post-feed period” value ([4]; simultaneously with feeding)?
**A.** 13.6 ± 1.0 h

**Q.** What about the “Motor index, duodenum” value [4, 5] of the same molecule?
**A.** 0.675 ± 0.4

**Q.** And the “Motor index, jejunum” value [4, 5]?
**A.** 1.087 ± 0.2

**Q.** What about the “Motor index, stomach vestibulum” value [4, 5] of the same molecule?
**A.** 0.878 ± 0.1

— patent publication US5547938A, “Therapeutic agent for digestive tract diseases using glicentin” (Nisshin Flour Milling Co., Ltd., priority 1993, dated 1996)
